Data as given in patent publication US12662531B2, “CLDN18.2 antibody and use thereof” (FUTUREGEN BIOPHARMACEUTICAL (BEIJING) CO., LTD., priority 2019, dated 2026).

Legend:
[1] = tested on: SNU601 cells expressing CLDN18.2; test: Endocytosis of antibody after binding to SNU601 cells stably expressing CLDN18.2; type: cell-based; conditions: 10 μg/ml, 4 h
Description: It has been reported that the binding of some antibodies to cell surface antigens can cause endocytosis of antigen and antibody complexes, thereby reducing the expression level of the cell surface antigens and accelerating antibody metabolism in vivo (Schrama D et al., 2006, Nat Rev Drug Discov). In this example, the ability of antibodies 18.2-A1, 18.2-A3, 18.2-A4 and 18.2-A6 to be endocytosed by cells was tested in SNU601 cells stably expressing CLDN18.2. […] Subsequently, they were washed at 4° C. and stained with PE-labeled anti-human IgG antibody. After fixation with 4% formalin, antibody binding on the cell surface was tested by flow cytometry.

[2] = target: T1, CLDN18.2 (CT26-CLDN18.2 cells) (Homo sapiens, UniProt P56856); test: Flow cytometry binding of recombinant antibodies to CT26-CLDN18.2 cells; conditions: 4° C. 1 hour
T1 construct: expressed in transfected cells; host or cells: CT26 cells (mouse), lentiviral transduction, puromycin selection
Description: Binding activities of the recombinant monoclonal antibodies to CLDN18.2 were determined. Specifically, well-grown cell lines stably expressing CT26-CLDN18.2 were taken. The cells were washed with PBS, mixed with the fold-diluted antibody and incubated at 4° C. for 1 hour. The cells were washed once with flow cytometry buffer, PE-labeled anti-human IgG antibody was added, and incubated at 4° C. for 30 minutes. The supernatant was removed by centrifugation, and after the cells were washed with flow cytometry buffer, the fluorescence intensity on the surface of the cells was tested by flow cytometry. The relative binding activity of each antibody was calculated using the average fluorescence intensity.
The binding activity of the defucosylated antibodies 18.2-A1F, 18.2-A3F and 18.2-A4F to CLDN18.2 as compared to the binding activity of 18.2-A1, 18.2-A3 and 18.2-A4 to CLDN18.2 was tested by flow cytometry, the method of which is as described in Example 5, and the experimental results are shown in FIG. 7.

[3] = tested on: control CT26 cell line; test: Flow cytometry binding to control CT26 cell line; conditions: results not shown
[4] = target: T2, CLDN18.2 (CLDN18.2-Flag 293t cells) (Homo sapiens, UniProt P56856); test: Binding specificity, 293t cells expressing CLDN18.2-Flag, flow cytometry; conditions: 10 μg/ml antibody, 4° C. 1 hour
T2 construct: expressed in transfected cells; host or cells: 293t cells, transient transfection
From the text: (§1) Human Claudin18 proteins include two homologues, i.e., CLDN18.1 and CLDN18.2, which share exons other than exon 1, and the exon 1 sequences of CLDN18.1 and CLDN18.2 are highly similar with only 8 different amino acids in the first extracellular region. The exon 1 of CLDN18.1 and the exon 1 of CLDN18.2 are specifically expressed in different tissues driven by different promoters. Among them, CLDN18.1 is specifically expressed in lung epithelial cells, while CLDN18.2 is specifically expressed in gastric epithelial cells. To identify the specificity of the screened CLDN18.2 antibodies, binding of the antibodies to CLDN18.1 and CLDN18.2 was tested.
(§2) Specifically, well-grown 293t cells were taken to transiently express flag-tagged CLDN18.1 (CLDN18.1-Flag) or CLDN18.2 (CLDN18.2-Flag). 48 hours after transfection, the cells were digested with trypsin. After washed with flow cytometry buffer, the cells were mixed with 10 μg/ml of isotype control antibody or one of the above five CLDN18.2 antibodies in 200 μl of flow cytometry buffer, and were incubated at 4° C. for 1 hour. Subsequently, the cells were washed once with flow cytometry buffer, PE-labeled anti-human IgG antibody was added, and incubated at 4° C. for 30 min. The supernatant was removed by centrifugation, wash was performed twice with flow cytometry buffer, and the cells were fixed in a fix solution containing 1% paraformaldehyde and 0.5% triton-X100 and the cell membrane was permeabilized. Subsequently, the cells were incubated with APC-labeled anti-flag antibody for 30 min and tested by flow cytometry.

[5] = target: T3, CLDN18.1 (CLDN18.1-Flag 293t cells) (Homo sapiens, UniProt P56856); test: Binding specificity, 293t cells expressing CLDN18.1-Flag, flow cytometry; conditions: 10 μg/ml antibody, 4° C. 1 hour
T3 construct: expressed in transfected cells; host or cells: 293t cells, transient transfection
From the text: as §1, §2

[6] = tested on: human FcγRIIIa (V158) on FcγRIIIa-Jurkat cells; test: Flow cytometry binding to FcγRIIIa-Jurkat cells
From the text: We next further tested the binding activity of the CLDN18.2 antibodies and their defucosylated forms to FcγRIIIa expressed on the cell surface. Specifically, the human FcγRIIIa (V158, high FC binding subtype) gene was cloned into a mammalian cell expression vector carrying a puromycin screening marker and transfected into a Jurkat cell line. A cell line stably expressing FcγRIIIa (FcγRIIIa-Jurkat) was screened with puromycin. In addition, NK92MI is a human NK cell line that naturally expresses the FcγRIIIa receptor (F158, low FC binding subtype). The binding ability of the CLDN18.2 antibodies and their defucosylated forms to FcγRIIIa expressed on the surface of FcγRIIIa-jurkat cells and NK92MI cells was tested by flow cytometry. The specific flow cytometry assay is described with reference to Example 6.

[7] = tested on: untransfected Jurkat cells; test: Flow cytometry binding to untransfected Jurkat cells; conditions: results not shown

Row | Molecule | binding to SNU601 cells expressing CLDN18.2 under 4° C. incubation [1] | antibody staining/binding on the cell surface under 37° C. incubation [1] | binding to CT26 cell line expressing CLDN18.2 [2] | binding to control CT26 cell line [3] | binding to CLDN18.2-flag transfected positive 293t cells [4] | binding to CLDN18.1-positive cells [5] | endocytosis by cells under 37° C. incubation [1] | binding to FcγRIIIa-jurkat cells [6] | binding to untransfected Jurkat cells [7]
1 | IMAB362: CLDN18.2 specific antibody (IMAB362, Ganymed) [reference compound] | bound well | decreased significantly | – | – | – | – | – | – | –
2 | 18.2-A2: recombinant monoclonal CLDN18.2 antibody, VH SEQ ID NO: 11, VL SEQ ID NO: 16 (antibody, V domains shown, 18.2-A2 VH; 18.2-A2 VL) VH: EVQLVQSGAEVKKPGASVKVSCKASGYTFTSFWVGWVRQAPGQGLEWIGNVSPSDSYTNYNQKFKDRATLTVDKSTSTAYMELSSLRSEDTAVYYCTRLSSGNSFDYWGQGTLVTVSS VL: DIVMTQSPDSLSVSLGERATINCKSSQSVLNSGNQKNYLTWYQQKPGQPPKLLIYWSSTKQSGVPDRFSGSGSGTDFTLTISSLQAEDVAVYYCQNAFSFPFTFGQGTKVEIK | – | – | able to bind well | did not bind | able to bind well | none of the six antibodies bound | – | – | –
3 | 18.2-A6: recombinant monoclonal CLDN18.2 antibody, VH SEQ ID NO: 55, VL SEQ ID NO: 60 (antibody, V domains shown, 18.2-A6 VH; 18.2-A6 VL) VH: EVQLVQSGAEVKKPGASVKVSCKASGYTFTSYWLGWVRQAPGQGLEWIGIIYPSDSYTNYNQKFKDRATLTVDKSTSTAYMELSSLRSEDTAVYYCTRFWRGNSFDYWGQGTLVTVSS VL: DIVMTQSPDSLTIGLGERATINCKSSQSLLNSGNQKNYLTWYQQKPGQPPKLLIYWAAGKESGVPDRFSGSGSGTDFTLTISSLQAEDVAVYYCQNGYSHPFTFGQGTKVEIK | bound well | still bound well | able to bind well | did not bind | able to bind well | none of the six antibodies bound | did not undergo significant endocytosis | – | –
4 | 18.2-A3: recombinant monoclonal CLDN18.2 antibody, VH SEQ ID NO: 21, VL SEQ ID NO: 26 (antibody, V domains shown, 18.2-A3 VH; 18.2-A3 VL) VH: EVQLVQSGAEVKKPGASVKVSCKASGYTFTSYWLNWVRQAPGQGLEWIGSMYPSDSYTNYNQKFKDRATLTVDKSTSTAYMELSSLRSEDTAVYYCTRFSRGNSFDYWGQGTLVTVSS VL: DIVMTQSPDSLTVALGERATINCKSSQSLLESGNQKNYLTWYQQKPGQPPKLLIYWSWAKNSGVPDRFSGSGSGTDFTLTISSLQAEDVAVYYCQNAYAFPFTFGQGTKVEIK | bound well | still bound well | able to bind well | did not bind | able to bind well | none of the six antibodies bound | did not undergo significant endocytosis | – | –
5 | 18.2-A5: recombinant monoclonal CLDN18.2 antibody, VH SEQ ID NO: 41, VL SEQ ID NO: 46 (antibody, V domains shown, 18.2-A5 VH; 18.2-A5 VL) VH: EVQLVQSGAEVKKPGASVKVSCKASGYTFTSSWVGWVRQAPGQGLEWIGNSYPSDSYTNYNQKFKDRATLTVDKSTSTAYMELSSLRSEDTAVYYCTRLGRGNSFDYWGQGTLVTVSS VL: DIVMTQSPDSLTVALGERATINCKSSQSLIHSGNQKNYLTWYQQKPGQPPKLLIYWGLSKNSGVPDRFSGSGSGTDFTLTISSLQAEDVAVYYCQNSIYYPFTFGQGTKVEIK | – | – | able to bind well | did not bind | able to bind well | none of the six antibodies bound | – | – | –
6 | 18.2-A4: recombinant monoclonal CLDN18.2 antibody, VH SEQ ID NO: 31, VL SEQ ID NO: 36 (antibody, V domains shown, 18.2-A4 VH; 18.2-A4 VL) VH: EVQLVQSGAEVKKPGASVKVSCKASGYTFTSFWISWVRQAPGQGLEWIGNILPSDSYTNYNQKFKDRATLTVDKSTSTAYMELSSLRSEDTAVYYCTRYWRGNSFDYWGQGTLVTVSS VL: DIVMTQSPDSLALALGERATINCKSSQSIINSGNQKNYLTWYQQKPGQPPKLLIYWGGTRHSGVPDRFSGSGSGTDFTLTISSLQAEDVAVYYCQNGYYSPFTFGQGTKVEIK | bound well | still bound well | able to bind well | did not bind | able to bind well | none of the six antibodies bound | did not undergo significant endocytosis | able to bind | not able to bind
